For this assay, the target named is Fc(A680)-VH4127 conjugate (human, UniProt P01857 = IgG part, Alexa Fluor 680 (degree of labelling 1.7); H-PEG6-VH4127-NH2 joined enzymatically by microbial transglutaminase to the C-terminus of the Myc-tagged Fc | non-natural amino acid residues (not given); …). Nature of the assay: SPR.

Drawing on paper PMC8377056 (2021), this text covers koff for 1 molecule.

B1: His-tagged recombinant mouse LDLR (receptor)
chain: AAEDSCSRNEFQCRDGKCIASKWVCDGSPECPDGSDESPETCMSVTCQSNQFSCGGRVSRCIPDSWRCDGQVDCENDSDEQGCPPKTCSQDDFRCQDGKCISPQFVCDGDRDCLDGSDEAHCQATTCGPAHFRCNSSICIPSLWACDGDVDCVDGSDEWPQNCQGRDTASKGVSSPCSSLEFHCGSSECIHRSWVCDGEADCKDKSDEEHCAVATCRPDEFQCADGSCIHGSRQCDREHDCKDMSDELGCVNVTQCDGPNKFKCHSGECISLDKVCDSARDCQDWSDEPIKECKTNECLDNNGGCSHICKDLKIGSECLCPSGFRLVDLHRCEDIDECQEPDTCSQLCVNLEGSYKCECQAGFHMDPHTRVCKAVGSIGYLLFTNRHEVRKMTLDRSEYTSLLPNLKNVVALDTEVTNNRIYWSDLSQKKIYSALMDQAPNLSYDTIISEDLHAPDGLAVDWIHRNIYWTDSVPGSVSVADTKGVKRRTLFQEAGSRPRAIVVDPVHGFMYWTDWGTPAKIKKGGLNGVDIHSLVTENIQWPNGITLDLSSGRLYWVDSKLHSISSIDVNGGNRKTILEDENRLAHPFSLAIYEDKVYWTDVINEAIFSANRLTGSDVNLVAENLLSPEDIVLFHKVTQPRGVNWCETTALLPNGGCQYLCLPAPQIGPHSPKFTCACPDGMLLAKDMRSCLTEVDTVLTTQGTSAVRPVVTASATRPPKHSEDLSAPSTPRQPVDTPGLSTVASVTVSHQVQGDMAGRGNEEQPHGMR
For the molecule B1, the koff was determined as 0.000236 s⁻¹.
